Source: IntAct's records for PubMed 31515488

B1: Isoform 1 of Protein quaking (Homo sapiens), Q96PU8-1 (parent)
chain: MVGEMETKEKPKPTPDYLMQLMNDKKLMSSLPNFCGIFNHLERLLDEEISRVRKDMYNDTLNGSTEKRSAELPDAVGPIVQLQEKLYVPVKEYPDFNFVGRILGPRGLTAKQLEAETGCKIMVRGKGSMRDKKKEEQNRGKPNWEHLNEDLHVLITVEDAQNRAEIKLKRAVEEVKKLLVPAAEGEDSLKKMQLMELAILNGTYRDANIKSPALAFSLAATAQAAPRIITGPAPVLPPAALRTPTPAGPTIMPLIRQIQTAVMPNGTPHPTAAIVPPGPEAGLIYTPYEYPYTLAPATSILEYPIEPSGVLGAVATKVRRHDMRVHPYQRIVTADRAATGN
B2: Interferon-induced protein with tetratricopeptide repeats 2 (Homo sapiens), P09913 (parent)
chain: MSENNKNSLESSLRQLKCHFTWNLMEGENSLDDFEDKVFYRTEFQNREFKATMCNLLAYLKHLKGQNEAALECLRKAEELIQQEHADQAEIRSLVTWGNYAWVYYHMGRLSDVQIYVDKVKHVCEKFSSPYRIESPELDCEEGWTRLKCGGNQNERAKVCFEKALEKKPKNPEFTSGLAIASYRLDNWPPSQNAIDPLRQAIRLNPDNQYLKVLLALKLHKMREEGEEEGEGEKLVEEALEKAPGVTDVLRSAAKFYRRKDEPDKAIELLKKALEYIPNNAYLHCQIGCCYRAKVFQVMNLRENGMYGKRKLLELIGHAVAHLKKADEANDNLFRVCSILASLHALADQYEDAEYYFQKEFSKELTPVAKQLLHLRYGNFQLYQMKCEDKAIHHFIEGVKINQKSREKEKMKDKLQKIAKMRLSKNGADSEALHVLAFLQELNEKMQQADEDSERGLESGSLIPSASSWNGE
partner: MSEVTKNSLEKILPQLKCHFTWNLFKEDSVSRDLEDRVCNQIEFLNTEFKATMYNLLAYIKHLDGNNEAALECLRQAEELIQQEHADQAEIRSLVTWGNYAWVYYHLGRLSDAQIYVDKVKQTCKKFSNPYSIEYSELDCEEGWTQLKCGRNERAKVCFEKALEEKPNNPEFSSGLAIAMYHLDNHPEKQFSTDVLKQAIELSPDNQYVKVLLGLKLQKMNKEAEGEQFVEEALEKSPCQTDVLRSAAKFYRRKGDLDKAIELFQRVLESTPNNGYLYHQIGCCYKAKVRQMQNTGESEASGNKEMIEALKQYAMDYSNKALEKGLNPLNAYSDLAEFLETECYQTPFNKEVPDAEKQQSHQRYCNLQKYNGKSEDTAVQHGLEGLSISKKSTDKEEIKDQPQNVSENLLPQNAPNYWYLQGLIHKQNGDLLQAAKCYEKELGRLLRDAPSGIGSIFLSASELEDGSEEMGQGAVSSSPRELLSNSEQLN
B3: Tripartite motif-containing protein 59 (Homo sapiens), Q8IWR1 (parent)
chain: MHNFEEELTCPICYSIFEDPRVLPCSHTFCRNCLENILQASGNFYIWRPLRIPLKCPNCRSITEIAPTGIESLPVNFALRAIIEKYQQEDHPDIVTCPEHYRQPLNVYCLLDKKLVCGHCLTIGQHHGHPIDDLQSAYLKEKDTPQKLLEQLTDTHWTDLTHLIEKLKEQKSHSEKMIQGDKEAVLQYFKELNDTLEQKKKSFLTALCDVGNLINQEYTPQIERMKEIREQQLELMALTISLQEESPLKFLEKVDDVRQHVQILKQRPLPEVQPVEIYPRVSKILKEEWSRTEIGQIKNVLIPKMKISPKRMSCSWPGKDEKEVEFLKILNIVVVTLISVILMSILFFNQHIITFLSEITLIWFSEASLSVYQSLSNSLHKVKNILCHIFYLLKEFVWKIVSH
partner: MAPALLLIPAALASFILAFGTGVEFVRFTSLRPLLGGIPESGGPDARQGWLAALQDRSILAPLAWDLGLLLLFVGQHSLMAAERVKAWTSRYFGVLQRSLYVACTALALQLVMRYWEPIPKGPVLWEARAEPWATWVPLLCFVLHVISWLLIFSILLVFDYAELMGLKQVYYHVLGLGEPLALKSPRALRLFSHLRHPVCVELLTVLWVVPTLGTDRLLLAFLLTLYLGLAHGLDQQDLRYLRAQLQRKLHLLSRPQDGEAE
B4: Notch homolog 2 N-terminal-like protein A (Homo sapiens), Q7Z3S9 (parent)
chain: MCVTYHNGTGYCKCPEGFLGEYCQHRDPCEKNRCQNGGTCVAQAMLGKATCRCASGFTGEDCQYSTSHPCFVSRPCLNGGTCHMLSRDTYECTCQVGFTGKECQWTDACLSHPCANGSTCTTVANQFSCKCLTGFTGQKCETDVNECDIPGHCQHGGTCLNLPGSYQCQCLQGFTGQYCDSLYVPCAPSPCVNGGTCRQTGDFTFECNCLPETVRRGTELWERDREVWNGKEHDEN
partner: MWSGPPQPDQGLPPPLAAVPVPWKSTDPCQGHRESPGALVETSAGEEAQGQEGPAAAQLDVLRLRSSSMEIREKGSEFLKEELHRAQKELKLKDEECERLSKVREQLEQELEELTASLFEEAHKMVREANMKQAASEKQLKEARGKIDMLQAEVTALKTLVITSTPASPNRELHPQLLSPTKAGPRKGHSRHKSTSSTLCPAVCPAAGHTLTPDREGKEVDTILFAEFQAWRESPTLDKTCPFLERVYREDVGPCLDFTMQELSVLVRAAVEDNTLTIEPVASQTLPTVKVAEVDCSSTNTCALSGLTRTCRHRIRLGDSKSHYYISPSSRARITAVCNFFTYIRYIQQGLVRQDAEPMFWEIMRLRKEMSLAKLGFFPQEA
B5: Homeobox protein PKNOX1 (Homo sapiens), P55347 (parent)
chain: MMATQTLSIDSYQDGQQMQVVTELKTEQDPNCSEPDAEGVSPPPVESQTPMDVDKQAIYRHPLFPLLALLFEKCEQSTQGSEGTTSASFDVDIENFVRKQEKEGKPFFCEDPETDNLMVKAIQVLRIHLLELEKVNELCKDFCSRYIACLKTKMNSETLLSGEPGSPYSPVQSQQIQSAITGTISPQGIVVPASALQQGNVAMATVAGGTVYQPVTVVTPQGQVVTQTLSPGTIRIQNSQLQLQLNQDLSILHQDDGSSKNKRGVLPKHATNVMRSWLFQHIGHPYPTEDEKKQIAAQTNLTLLQVNNWFINARRRILQPMLDSSCSETPKTKKKTAQNRPVQRFWPDSIASGVAQPPPSELTMSEGAVVTITTPVNMNVDSLQSLSSDGATLAVQQVMMAGQSEDESVDSTEEDAGALAPAHISGLVLENSDSLQ
partner: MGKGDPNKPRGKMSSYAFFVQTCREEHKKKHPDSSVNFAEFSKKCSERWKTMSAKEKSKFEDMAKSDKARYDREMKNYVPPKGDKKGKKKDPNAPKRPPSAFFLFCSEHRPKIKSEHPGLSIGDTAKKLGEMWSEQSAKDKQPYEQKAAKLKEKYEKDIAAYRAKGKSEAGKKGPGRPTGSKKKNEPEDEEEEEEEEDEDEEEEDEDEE
B6: Isoform 1 of Equilibrative nucleoside transporter 1 (Homo sapiens), Q99808-1 (parent)
chain: MTTSHQPQDRYKAVWLIFFMLGLGTLLPWNFFMTATQYFTNRLDMSQNVSLVTAELSKDAQASAAPAAPLPERNSLSAIFNNVMTLCAMLPLLLFTYLNSFLHQRIPQSVRILGSLVAILLVFLITAILVKVQLDALPFFVITMIKIVLINSFGAILQGSLFGLAGLLPASYTAPIMSGQGLAGFFASVAMICAIASGSELSESAFGYFITACAVIILTIICYLGLPRLEFYRYYQQLKLEGPGEQETKLDLISKGEEPRAGKEESGVSVSNSQPTNESHSIKAILKNISVLAFSVCFIFTITIGMFPAVTVEVKSSIAGSSTWERYFIPVSCFLTFNIFDWLGRSLTAVFMWPGKDSRWLPSLVLARLVFVPLLLLCNIKPRRYLTVVFEHDAWFIFFMAAFAFSNGYLASLCMCFGPKKVKPAEAETAGAIMAFFLCLGLALGAVFSFLFRAIV
partner: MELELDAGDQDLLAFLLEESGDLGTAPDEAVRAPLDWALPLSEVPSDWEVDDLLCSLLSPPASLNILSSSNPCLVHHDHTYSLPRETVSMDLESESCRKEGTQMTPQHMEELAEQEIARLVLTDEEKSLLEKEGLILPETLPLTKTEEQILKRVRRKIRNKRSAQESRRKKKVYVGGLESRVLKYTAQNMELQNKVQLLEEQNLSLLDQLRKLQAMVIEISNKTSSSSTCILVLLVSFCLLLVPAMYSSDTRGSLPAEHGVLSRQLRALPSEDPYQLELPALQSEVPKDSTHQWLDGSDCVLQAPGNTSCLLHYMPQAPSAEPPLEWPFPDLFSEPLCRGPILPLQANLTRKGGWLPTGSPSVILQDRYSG

Variants of: B1
Settings: with hnrpk_human HNRNPK

effect of a mutation on the interaction | Variant
with no effect | R336Q

Variants of: B1
Settings: with fubp3_human FUBP3, Q96I24
Sequence of fubp3_human FUBP3, Q96I24 (Q96I24 whole entry): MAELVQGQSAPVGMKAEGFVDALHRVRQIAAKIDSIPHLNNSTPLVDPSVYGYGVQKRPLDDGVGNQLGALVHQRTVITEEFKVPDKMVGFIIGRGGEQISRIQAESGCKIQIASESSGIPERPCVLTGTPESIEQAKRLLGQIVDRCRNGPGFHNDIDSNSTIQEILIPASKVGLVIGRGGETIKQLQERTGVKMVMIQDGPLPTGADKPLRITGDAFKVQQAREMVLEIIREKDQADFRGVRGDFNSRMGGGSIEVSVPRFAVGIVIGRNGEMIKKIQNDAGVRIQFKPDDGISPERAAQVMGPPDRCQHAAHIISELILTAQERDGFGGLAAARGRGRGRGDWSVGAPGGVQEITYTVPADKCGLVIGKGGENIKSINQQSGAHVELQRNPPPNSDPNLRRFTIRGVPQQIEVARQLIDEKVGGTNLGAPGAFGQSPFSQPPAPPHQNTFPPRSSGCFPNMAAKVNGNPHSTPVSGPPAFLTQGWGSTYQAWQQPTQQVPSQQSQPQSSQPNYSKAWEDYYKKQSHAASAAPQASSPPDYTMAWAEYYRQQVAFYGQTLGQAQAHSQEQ

effect of a mutation on the interaction | Variant
with no effect | R336Q

Variants of: B1
Settings: with rbpms_human RBPMS

effect of a mutation on the interaction | Variant
with no effect | R336Q

Variants of: B2
Settings: with ifit3_human IFIT3, O14879

effect of a mutation on the interaction | Variant
disrupting interaction strength | E79A

Variants of: B3
Settings: with nrm_human NRM

effect of a mutation on the interaction | Variant
with no effect | R258C

Variants of: B4
Settings: with RAB3IL1, Q8TBN0

effect of a mutation on the interaction | Variant
with no effect | A115T
with no effect | R74Q

Variants of: B5
Settings: with hmgb2_human HMGB2, P26583

effect of a mutation on the interaction | Variant
with no effect | E103D
with no effect | V265I

Variants of: B5
Settings: with hmgb2_human HMGB2, P26583
Remark: another data set of the same source

effect of a mutation on the interaction | Variant
with no effect | V265I

Variants of: B6
Settings: with creb3_human CREB3, O43889

effect of a mutation on the interaction | Variant
with no effect | A293T
